According to patent US20250312444A1 (BEIJING TUO JIE BIOPHARMACEUTICAL, published 2025):
Like-named read-outs stand apart in the source and are kept apart here.

Tests used:
Assay in all cases: SPR Biacore T200, antibody captured by anti-His, albumin as analyte
[1] = target: T1, monkey serum albumin (CySA) (monkey)
T1 chain: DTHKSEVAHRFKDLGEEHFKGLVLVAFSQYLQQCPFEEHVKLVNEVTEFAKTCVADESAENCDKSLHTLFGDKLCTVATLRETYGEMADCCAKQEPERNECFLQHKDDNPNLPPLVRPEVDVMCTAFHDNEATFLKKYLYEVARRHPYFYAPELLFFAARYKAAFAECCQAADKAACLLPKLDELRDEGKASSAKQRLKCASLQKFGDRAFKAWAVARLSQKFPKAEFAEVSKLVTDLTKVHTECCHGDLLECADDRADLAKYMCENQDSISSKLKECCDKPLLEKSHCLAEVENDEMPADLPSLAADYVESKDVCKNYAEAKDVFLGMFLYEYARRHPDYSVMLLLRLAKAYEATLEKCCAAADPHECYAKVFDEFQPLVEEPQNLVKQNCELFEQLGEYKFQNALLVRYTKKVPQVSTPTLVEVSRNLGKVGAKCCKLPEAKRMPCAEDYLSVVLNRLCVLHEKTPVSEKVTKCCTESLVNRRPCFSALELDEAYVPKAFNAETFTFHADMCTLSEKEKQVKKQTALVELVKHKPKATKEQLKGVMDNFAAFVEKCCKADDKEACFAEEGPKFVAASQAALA
Procedure: (§1) The affinity constants of the 6His-tagged humanized anti-HSA antibodies for human, monkey and mouse albumins were determined using a Biacore T200 (GE Healthcare) instrument. Firstly, amino coupling was performed on a CM5 S series chip (GE, Cat. 29-1049-88) by using an amino coupling kit (GE, Cat. BR-1000-50) and a His capture kit (GE, Cat. 28-9950-56) according to the kit manuals. The surface response value reached about 10000 RU. The chip was then blocked with ethanolamine for later use. The 6His-tagged humanized anti-HSA antibodies were each captured onto the anti-his chip through affinity. Then, different concentrations of human, monkey and mouse albumins were flowed over the surface of the chip, and the reaction signals were detected in real-time using the Biacore instrument to obtain the association and dissociation curves. Finally, fitting was performed with a Langmuir 1:1 binding model using BIAevaluation version 4.1, GE software to obtain the affinity constants. The buffer used in the experiment was an HBS-EP solution (10 mM HEPES, 150 mM NaCl, 3 mM EDTA, 0.05% P20, pH 7.4, GE, Cat. #BR-1006-69). After the end of each cycle, the chip was regenerated using glycine-hydrochloric acid (pH 1.5) (GE, Cat. #BR-1003-54).

[2] = target: human serum albumin (HSA) (human)
Procedure: as §1

[3] = target: mouse serum albumin (mSA) (mouse)
Procedure: as §1

[4] = target: T1, monkey serum albumin (CySA)
Procedure: (§2) The anti-HSA antibody 7_Hu_10-6his was transiently expressed in HEK293E cells. After affinity purification with a nickel column, the affinity constants of the antibody for human, monkey, mouse, rat, dog and rabbit albumins were determined using a Biacore T200 (GE Healthcare) instrument. Firstly, amino coupling was performed on a CM5 S series chip (GE, Cat. 29-1049-88) by using an amino coupling kit (GE, Cat. BR-1000-50) and a His capture kit (GE, Cat. 28-9950-56) according to the kit manuals. The surface response value reached about 10000 RU. The chip was then blocked with ethanolamine for later use. The 6His-tagged humanized anti-HSA antibodies were each captured onto the anti-his chip through affinity. Then, different concentrations of human, monkey, mouse, rat, dog and rabbit albumins were flowed over the surface of the chip, and the reaction signals were detected in real-time using the Biacore instrument to obtain the association and dissociation curves. Finally, fitting was performed with a Langmuir 1:1 binding model using BIAevaluation version 4.1, GE software to obtain the affinity constants. The buffer used in the experiment was an HBS-EP solution (10 mM HEPES, 150 mM NaCl, 3 mM EDTA, 0.05% P20, pH 7.4, GE, Cat. #BR-1006-69). 20 After the end of each cycle, the chip was regenerated using glycine-hydrochloric acid (pH 1.5) (GE, Cat. #BR-1003-54).

rat serum albumin = target: T2, rat serum albumin (rat)
T2 chain: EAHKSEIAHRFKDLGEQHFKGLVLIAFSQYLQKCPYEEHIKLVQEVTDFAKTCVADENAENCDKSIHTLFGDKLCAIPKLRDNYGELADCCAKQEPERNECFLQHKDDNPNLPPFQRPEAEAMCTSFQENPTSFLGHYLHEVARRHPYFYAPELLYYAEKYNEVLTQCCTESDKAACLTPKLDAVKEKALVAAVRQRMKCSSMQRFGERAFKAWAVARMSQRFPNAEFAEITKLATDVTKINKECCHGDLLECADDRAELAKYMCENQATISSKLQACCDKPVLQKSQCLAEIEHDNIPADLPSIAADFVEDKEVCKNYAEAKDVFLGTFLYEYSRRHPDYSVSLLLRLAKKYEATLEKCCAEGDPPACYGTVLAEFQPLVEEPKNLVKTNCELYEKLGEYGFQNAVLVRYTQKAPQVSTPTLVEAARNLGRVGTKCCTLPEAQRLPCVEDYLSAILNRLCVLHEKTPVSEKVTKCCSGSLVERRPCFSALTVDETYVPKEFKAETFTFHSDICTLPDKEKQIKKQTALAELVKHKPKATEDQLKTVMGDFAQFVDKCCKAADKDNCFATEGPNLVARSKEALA
Procedure: as §2

dog serum albumin = target: T3, dog serum albumin (dog, UniProt P49822 25-608)
T3 construct: also called Dog SA; dog albumin
Procedure: as §2

[5] = target: human serum albumin (HSA) (human); remark: listed apart in the source
Procedure: as §2

rabbit serum albumin = target: T4, rabbit serum albumin (rabbit, UniProt P49065 25-608)
T4 construct: also called Rabbit SA; rabbit albumin
Procedure: as §2

[6] = target: mouse serum albumin (mSA) (mouse); remark: listed apart in the source
Procedure: as §2

B1: #7_Hu_10-6His (VHH)
VHH: EVQLLESGGGLVQPGGSLRLSCAASGFTFLTSCMGWFRQAPGKEREGVSSIYTVGGSTFYTNSVKGRFTISRDNSKNTLYLQMNSLRAEDTAVYYCAAGSPARCRLRDPTTFDYWGQGTLVTVSS
With B1 as the binder, how does the Kd [1] read?
The Kd was 31 nM.

What about the koff [1] of the same binder?
Its koff is 0.000545 s⁻¹.

What about the kon [1] of the same binder?
Its kon is 17600 M⁻¹ s⁻¹.

What about the Kd [2] of the same binder?
Its Kd is 11.5 nM.

And the koff [2]?
Its koff is 0.000347 s⁻¹.

And the kon [2]?
The kon was 30100 M⁻¹ s⁻¹.

And the Kd [3]?
The Kd was 328 nM.

And the koff [3]?
The koff was 0.0196 s⁻¹.

And the kon [3]?
The kon was 59700 M⁻¹ s⁻¹.

And the Kd [4]?
Its Kd is 14.5 nM.

And the koff [4]?
The koff was 0.000697 s⁻¹.

And the kon [4]?
The kon was 47900 M⁻¹ s⁻¹.

What about the Kd (rat serum albumin) of the same binder?
The Kd was 158 nM.

And the koff (rat serum albumin)?
Its koff is 0.00461 s⁻¹.

And the kon (rat serum albumin)?
Its kon is 29200 M⁻¹ s⁻¹.

What about the Kd (dog serum albumin) of the same binder?
Its Kd is 342 nM.

What about the koff (dog serum albumin) of the same binder?
Its koff is 0.0211 s⁻¹.

And the kon (dog serum albumin)?
The kon was 61700 M⁻¹ s⁻¹.

And the Kd [5]?
Its Kd is 10.6 nM.

And the koff [5]?
The koff was 0.000683 s⁻¹.

And the kon [5]?
Its kon is 64700 M⁻¹ s⁻¹.

Does B1 bind (rabbit serum albumin)?
Result: no binding

And the Kd [6]?
Its Kd is 653 nM.

What about the koff [6] of the same binder?
Its koff is 0.0254 s⁻¹.

And the kon [6]?
The kon was 38900 M⁻¹ s⁻¹.
